The values that follow come from PMC12075686, “Structural basis of phosphorylation-independent nuclear import of CIRBP by TNPO3” (Nature Communications, 2025).

Positions count from the first letter of the chain named. Several values for one entry are separate records, joined by “and”; a condition that tells them apart may be missing. Equal values may be shown once. Read-outs that look alike come from different tables or passages of the source. Non-standard residues stand in square brackets, D forms with d. No end group written: not given here. pS = N[C@@H](COP(=O)(O)O)C(=O)O

The target in assay [1] is Transportin 3 (TNPO3), full-length wild type (human) (UniProt Q9Y5L0). Kind of assay: ITC; 100 µM ligand in the syringe injected (28 x 10 µL) into 10 µM TNPO3 (WT or C511A) in the cell; 25 °C; 50 mM Tris-HCl pH 7.5, 150 mM NaCl, 2 mM TCEP, 0.04% NaN3. For orientation: In ITC the heat of successive injections is recorded.
Assay [2] has as its target SRSF1 RS-NLS (Homo sapiens) (UniProt Q07955). Kind of assay: FP. The conditions noted are these: cited from earlier work.
The target of assay [3] is CPSF6 RS-NLS (Homo sapiens) (UniProt Q16630). The assay is described as follows: FP. The conditions noted are these: cited from earlier work.
A further assay has as its target T1, TNPO3 WT (Homo sapiens, UniProt Q9Y5L0).
T1 sequence (Q9Y5L0 1-923): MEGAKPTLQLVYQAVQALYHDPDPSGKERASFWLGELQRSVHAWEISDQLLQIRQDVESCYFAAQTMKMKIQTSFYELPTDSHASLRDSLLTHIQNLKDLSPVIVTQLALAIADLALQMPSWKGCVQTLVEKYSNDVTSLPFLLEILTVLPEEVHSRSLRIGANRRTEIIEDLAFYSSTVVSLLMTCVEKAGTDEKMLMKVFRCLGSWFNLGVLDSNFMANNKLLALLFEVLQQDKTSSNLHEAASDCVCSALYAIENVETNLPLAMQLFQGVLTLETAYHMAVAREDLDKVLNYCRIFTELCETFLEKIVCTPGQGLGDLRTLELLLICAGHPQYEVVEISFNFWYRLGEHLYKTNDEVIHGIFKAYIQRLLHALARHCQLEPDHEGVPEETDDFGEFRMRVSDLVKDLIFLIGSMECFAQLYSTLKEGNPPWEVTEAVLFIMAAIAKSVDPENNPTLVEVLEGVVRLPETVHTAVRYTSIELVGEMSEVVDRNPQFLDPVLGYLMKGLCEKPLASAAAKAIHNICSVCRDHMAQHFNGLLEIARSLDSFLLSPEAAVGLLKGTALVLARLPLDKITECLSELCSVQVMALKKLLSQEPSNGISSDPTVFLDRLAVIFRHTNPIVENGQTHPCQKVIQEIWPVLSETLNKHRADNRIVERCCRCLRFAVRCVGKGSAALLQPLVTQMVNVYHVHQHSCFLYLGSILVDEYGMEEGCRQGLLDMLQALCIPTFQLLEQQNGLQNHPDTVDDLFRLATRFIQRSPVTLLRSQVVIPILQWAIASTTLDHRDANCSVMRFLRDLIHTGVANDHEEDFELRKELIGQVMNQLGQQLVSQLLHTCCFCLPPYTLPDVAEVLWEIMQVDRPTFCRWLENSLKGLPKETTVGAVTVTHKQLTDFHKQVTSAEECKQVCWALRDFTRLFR
Kind of assay: ITC, ligand titrated into TNPO3 WT. The conditions noted are these: ITC; for Kd / ΔS: TNPO3 WT; for Kd: pH 7.5, read-out: TNPO3 binding Kd. In kind it is binding. How it is done:
ITC has been performed by a Malvern Microcal VP-ITC at 25 °C for all binding studies. Samples have been dissolved in Tris buffer containing 50 mM Tris–HCl, 150 mM NaCl, 2 mM TCEP, and 0.04% NaN3 at pH 7.5. Binding studies of CIRBP^RSY and SRSF1^RS were performed with TNPO3 WT, and studies of CIRBP (157–172) and its mutants/phosphorylations were performed with TNPO3 C511A, respectively. Injection has been carried out by a syringe containing ligand solution of 100 μM, which adds ligand step-wise into the cell containing 10 μM TNPO3 during 28 injections of 10 μL each. Data analysis, curve fitting, and calculation of Kd, ΔH, and ΔS have been carried out using Origin-based 7.0 software provided by the manufacturer. All replicated ITC data are shown in Supplementary Fig. 6 and Supplementary Table 1.

Another assay has as its system TNPO3. Kind of assay: NMR binding studies with TNPO3 (1H-15N HSQC, 1H-13C HMQC, 1H 1D, STD). Further details: species or system human. The conditions noted are these: pH 6.7; for spectral changes of 15N-labeled cargo upon addition of TNPO3 (1H,15N HSQC): 60 µM cargo, one stoichiometric equivalent of TNPO3, 298 K; for chemical shift perturbations of TNPO3 methyl groups upon ligand addition (1H,13C HMQC): 100 µM [IM-methyl 13C] labeled TNPO3, one stoichiometric equivalent of ligand, 298 K. On the procedure: All NMR studies for TNPO3 were carried out using the wild type protein. Protein samples for ^1H-^13C HMQC were prepared at a concentration of 100 μM and equilibrated in a buffer containing 50 mM Tris–HCl, pH 6.7, 150 mM NaCl, 2 mM TCEP and 10% D2O. Spectral acquisitions for TNPO3 free and in complex with CIRBP^RSY and SRSF1^RS, respectively were performed at 298 K on a 700 MHz Bruker Avance III NMR spectrometer equipped with a TCI triple-resonance cryoprobe. The pulse program was sfhmqcf2gpph and the spectra were recorded with 32 scans, interscan delay of 1 s, 160 points in F1, 1024 points in F2, 5283.879 Hz spectral width in F1, and 11,160.714 Hz spectral width in F2. Spectra were processed using Topspin 4.1.3.
Spectral acquisitions for TNPO3 free and in complex with mCIRBP^RSY, pCIRBP^RSY, and pSRSF1^RS, respectively, were performed at 298 K on a 600 MHz Bruker Avance Neo NMR spectrometer equipped with a TXI 600S3 probehead. The pulse program was hmqcgpphwg and the spectra were recorded with 64 scans, interscan delay of 1 s, 200 points in F1, 1024 points in F2, 4545.455 Hz spectral width in F1, and 7812.500 Hz spectral width in F2. Spectra were processed using Topspin 4.3.0.
For ^1H-^15N HSQC spectra, protein samples were equilibrated in a buffer containing 50 mM Tris–HCl, pH 6.7, 150 mM NaCl, 2 mM TCEP, 0.04% NaN3, and 10% D2O (with additional 20 mM MgCl2 for CIRBP phosphorylation kinetics). Data were recorded at 298 K on the 600 MHz Bruker Avance Neo NMR spectrometer equipped with a TXI 600S3 probehead. The pulse program was hsqcetfpf3gpsi and was recorded with 8-16 scans, interscan delay of 1 s, 128 points in F1, 1024 points in F2, 1949.318 Hz spectral width in F1, and 9615.385 Hz spectral width in F2. Spectra were processed using Topspin 4.3.0.

In assay [4] the target is Transportin 3 (TNPO3) C511A mutant (human) (UniProt Q9Y5L0). The assay is described as follows: ITC; 100 µM ligand in the syringe injected (28 x 10 µL) into 10 µM TNPO3 (WT or C511A) in the cell; 25 °C; 50 mM Tris-HCl pH 7.5, 150 mM NaCl, 2 mM TCEP, 0.04% NaN3.
In assay [5] the target is T2, Transportin 3 (TNPO3) C511A mutant (human, UniProt Q9Y5L0 1-923, C511A).
T2 sequence: T1 sequence (Q9Y5L0 1-923) with C511A
Kind of assay: ITC.

The target in assay [6] is T2, Transportin 3 (TNPO3) C511A mutant. Kind of assay: ITC; rep2.
Assay [7] shares this target. The assay is described as follows: ITC. This is another data set of the same source.
In assay [8] the target is T3, Transportin 3 (TNPO3), full-length wild type (human, UniProt Q9Y5L0 1-923).
T3 construct: Transportin 3 (TNPO3), human, full-length wild type; For the NMR experiments made 15N-labelled with 13C-methyl labelling of isoleucine and methionine side chains ([IM-methyl 13C]); Vector pETM11-His6-protein A with a TEV site downstream of the protein A tag; also called TNPO3 WT; TNPO3 FL WT; source: E. coli BL21-(DE3) Star, purified (Ni-NTA, TEV cleavage, second Ni-NTA, SEC Superdex 200); not …
T3 sequence (looked up): T1 sequence (Q9Y5L0 1-923)
The assay is described as follows: NMR titration; 1H NMR spectra of 50 µM peptide free and with a stoichiometric amount (50 µM) of TNPO3 WT; line broadening of peptide signals. The conditions noted are these: both partners purified.

The target of assay [9] is T4, Transportin 3 (TNPO3), full-length wild type (human, UniProt Q9Y5L0 1-923).
T4 chain: T1 sequence (Q9Y5L0 1-923)
The assay is described as follows: ITC; phosphorylated, rep2.

Assay [10] concerns the target T3, Transportin 3 (TNPO3), full-length wild …. Kind of assay: ITC; 100 µM ligand in the syringe injected (28 x 10 µL) into 10 µM TNPO3 (WT or C511A) in the cell; 25 °C; 50 mM Tris-HCl pH 7.5, 150 mM NaCl, 2 mM TCEP, 0.04% NaN3. As to conditions: both partners purified.
Assay [11] concerns the target T4, Transportin 3 (TNPO3), full-length wild …. The assay is described as follows: ITC; phosphorylated.

Sequence of Transportin 3 (TNPO3) C511A mutant (human) (Q9Y5L0 whole entry C511A): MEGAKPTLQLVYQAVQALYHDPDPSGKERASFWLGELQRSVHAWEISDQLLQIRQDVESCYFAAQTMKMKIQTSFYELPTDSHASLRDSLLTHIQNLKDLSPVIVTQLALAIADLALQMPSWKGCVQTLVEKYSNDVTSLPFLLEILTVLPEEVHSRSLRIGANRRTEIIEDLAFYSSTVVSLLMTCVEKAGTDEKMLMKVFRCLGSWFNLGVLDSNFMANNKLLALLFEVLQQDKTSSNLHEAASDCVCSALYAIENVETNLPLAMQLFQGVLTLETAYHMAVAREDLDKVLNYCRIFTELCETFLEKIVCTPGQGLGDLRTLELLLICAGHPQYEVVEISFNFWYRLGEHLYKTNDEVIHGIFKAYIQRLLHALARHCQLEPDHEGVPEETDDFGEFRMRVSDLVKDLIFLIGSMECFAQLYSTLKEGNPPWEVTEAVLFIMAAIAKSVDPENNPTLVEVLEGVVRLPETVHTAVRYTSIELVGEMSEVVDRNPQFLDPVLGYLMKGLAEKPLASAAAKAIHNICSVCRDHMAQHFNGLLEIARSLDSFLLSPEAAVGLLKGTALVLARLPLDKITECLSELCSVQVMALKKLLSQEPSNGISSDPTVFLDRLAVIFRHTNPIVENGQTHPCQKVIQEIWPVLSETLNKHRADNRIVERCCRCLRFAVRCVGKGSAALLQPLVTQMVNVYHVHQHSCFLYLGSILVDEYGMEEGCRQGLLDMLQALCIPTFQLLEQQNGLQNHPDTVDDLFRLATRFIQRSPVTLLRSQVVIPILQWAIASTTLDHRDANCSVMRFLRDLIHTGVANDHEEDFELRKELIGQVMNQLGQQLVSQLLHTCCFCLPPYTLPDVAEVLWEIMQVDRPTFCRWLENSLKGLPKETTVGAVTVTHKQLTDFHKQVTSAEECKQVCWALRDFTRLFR
Sequence of CPSF6 RS-NLS (Homo sapiens) (Q16630 490-551): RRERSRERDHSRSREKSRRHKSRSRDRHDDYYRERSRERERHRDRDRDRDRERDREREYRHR
Sequence of SRSF1 RS-NLS (Homo sapiens) (Q07955 198-227): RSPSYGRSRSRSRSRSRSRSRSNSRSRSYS

As a reminder, the Kd is a measure of binding affinity in units of concentration. Take “SR/RS-NLS of SRSF1, residues 195-211, phosphorylated in vitro by SRPK1 (from UniProt Q07955 195-211) (domain or fragment)”: the Kd in assay [1] turned out to be 2420 nM.

On to TNPO3 (from UniProt Q9Y5L0), for which the Kd in assay [2] is 1300 nM; in assay [3], 3400 nM.

Consider “pSRSF1^RS: SRSF1^RS phosphorylated in vitro using recombinant SRPK1 (DGPRSPSYGRSRSRSRS; also: multiple phosphoserines, sites not listed) [reference compound]”, for which the equilibrium dissociation constant (Kd) in the assay with TNPO3 WT (25 °C, replicate 1 (rep1)) worked out at 2490 ± 400 nM; with TNPO3 WT (25 °C, replicate 2 (rep2)) it was 2460 ± 500 nM. The values for the ΔS entry with TNPO3 WT (replicate 1 (rep1)) and with TNPO3 WT (replicate 2 (rep2)) were “–9.12 cal/mol/deg” and “–34.0 cal/mol/deg”, respectively. Also, in the assay with TNPO3, the “spectral changes of 15N-labeled cargo upon addition of TNPO3 (1H,15N HSQC)” value was “extensive line broadening of several NMR signals”. The “chemical shift perturbations of TNPO3 methyl groups upon ligand addition (1H,13C HMQC)” value in the assay on TNPO3 is “led to CSPs of several TNPO3 ^1H,^13C cross-peaks”.

For “DGPRSPSYGRSRSRSRS [SRSF1^RS, recombinant canonical SR/RS-NLS of human SRSF1 (195-211), unphosphorylated, reference compound]”, the “Kd of binding to TNPO3 (ITC), as given in text and figures” value on TNPO3 WT (100 µM ligand into 10 µM TNPO3 WT, 28 injections of 10 µL, 25 °C, 50 mM Tris–HCl, 150 mM NaCl, 2 mM TCEP, 0.04% NaN3, pH 7.5, error = SD of the fit) is “no binding was detectable”. Besides, in the assay on TNPO3, the “spectral changes of 15N-labeled cargo upon addition of TNPO3 (1H,15N HSQC)” value is reported as “weak binding” and the “chemical shift perturbations of TNPO3 methyl groups upon ligand addition (1H,13C HMQC)” value was “no binding was observed”.

B1: CIRBP (157-172) synthetic peptide, wild type (peptide)
peptide: GGSYRDSYDSYATHNE
notes: also called mCIRBP^RSY; source: synthetic peptide (Peptide Specialty Laboratories GmbH)
Take B1: the Kd was 5780 nM in [4]; 1180 nM in assay [5]; 6200 nM in assay [6]; 6200 nM and 4240 nM in assay [7]. For the same molecule, the binding result in assay [8] is recorded as “binds”.

B2: P5CS (3-20) synthetic peptide (peptide, UniProt P54886 3-20, looked up)
peptide: SQVYRCGFQPFNQHLLPW
notes: Delta-1-pyrroline-5-carboxylate synthase (P5CS), human, residues 3-20; also called P5CS^RSY (3–20); delta-1-pyrroline-5-carboxylate synthase; source: synthetic peptide (Peptide Specialty Laboratories GmbH)
In the case of B2, in [8], the binding result is “binds”.

B3: RBM39 (86-101) synthetic peptide (peptide, UniProt Q14498 86-101, looked up)
peptide: SRDRRFRGRYRSPYSG
notes: also called RBM39^RSY (86–101); source: synthetic peptide (Peptide Specialty Laboratories GmbH)
Consider B3, for which the binding result in [8] was “binds”.

B4: RBMX (276-291) synthetic peptide (peptide, UniProt P38159 276-291, looked up)
peptide: PSGGSYRDSYESYGNS
notes: also called RBMX^RSY (276–291); source: synthetic peptide (Peptide Specialty Laboratories GmbH)
Consider B4, for which, in assay [8], the binding result is given as “binds”.

B5: Phosphorylated RSY region of CIRBP (138-172), phosphorylated in vitro by SRPK1 (domain or fragment, human, UniProt Q14011 138-172, looked up)
chain: SRDYYSSR[pS]Q[pS]GGY[pS]DRSSGGSYRDSYDSYATHNE
notes: also called pCIRBP^RSY; phosphorylated CIRBP^RSY; source: E. coli BL21-(DE3) Star, purified; phosphorylated in vitro with recombinant SRPK1 and ATP overnight, isolated by SEC (Superdex 30 Increase); not shown: His6, N-terminal, cleaved; protein A, N-terminal, cleaved
Consider B5, for which the Kd in assay [9] stood at 2540 nM; in assay [10], 5990 nM; in assay [11], 2540 nM.
